Assay results reported in publication PMC9107221 (Journal of Nanobiotechnology, 2022).

T1: P61-GEEPNYQEEW (Chikungunya virus, SL-CK1)
T1 construct: 10-mer of the Chikungunya/SL-CK1 E2 glycoprotein, domain C; printed as residues 331 to 340 in the results and as 301-310 in the discussion
T1 chain: GEEPNYQEEW

T2: P10-LKIQVSLQIG (Chikungunya virus, SL-CK1)
T2 construct: 10-mer of the Chikungunya/SL-CK1 E2 glycoprotein, residues 46 to 55, domain A
T2 chain: LKIQVSLQIG

B1: Chikungunya/SL-CK1 E2 glycoprotein (natural protein)
chain: not shown
notes: E2 glycoprotein of Chikungunya virus strain SL-CK1, recombinant, about 40 kD on the blot; also called CHIKV E2; E2 protein; source: bought: Sino Biological

Key:
[1] = target: B1
[2] = target: T3, E2 glycoprotein of Chikungunya/human/China/GD134/2010, on virions and in infected Vero cells (Chikungunya virus …); assay: […]; antibodies 10 ug/mL, […]; settings: one partner purified
T3 construct: also called CHIKV virion; CHIKV virus

P61-GEEPNYQEEW = target: T1, P61-GEEPNYQEEW; assay: ELISA; peptide ELISA: each 10-mer peptide coated at 1 ug/mL in carbonate buffer pH 9.6, 2 ug/mL antibodies, HRP anti-6xHis; settings: both partners purified
[3] = target: B1; assay: SPR; LSPR (OpenSPR, Nicoya): E2 protein immobilised on a COOH chip by EDC/NHS, antibodies flowed at 20 uL/min in PBS pH 7.4, 240 s binding, 360 s dissociation, One to One model; settings: both partners purified
P10-LKIQVSLQIG = target: T2, P10-LKIQVSLQIG; assay: ELISA; peptide ELISA: each 10-mer peptide coated at 1 ug/mL in carbonate buffer pH 9.6, 2 ug/mL antibodies, HRP anti-6xHis; settings: both partners purified
BiNb-2E8 = target: T4, BiNb-2E8 (alpaca); assay: SPR; LSPR (OpenSPR, Nicoya): E2 protein immobilised on a COOH chip by EDC/NHS, antibodies flowed at 20 uL/min in PBS pH 7.4, 240 s binding, 360 s dissociation, One to One model; settings: both partners purified
T4 construct: VHH Nb-2E8, as the VHH of m1; flexible linker, printed as (GGGGS) x 3; VHH Nb-2E8, second copy, as the VHH of m1; Read here as two VHH in tandem on one chain; also called bivalent Nb-2E8; homo-dimer Nb-2E8 fused to Fc; source: HEK293 cells, pcDNA 3.4, purified (protein A)

BiNb-3C5 = target: T5, BiNb-3C5 (alpaca); assay: as above; settings: both partners purified
T5 construct: VHH Nb-3C5, as the VHH of m2; flexible linker, printed as (GGGGS) x 3; VHH Nb-3C5, second copy, as the VHH of m2; In the sandwich ELISA it was coupled with horseradish peroxidase (HRP Conjugation Kit); also called bivalent Nb-3C5; homo-dimer Nb-3C5 fused to Fc; source: HEK293 cells, pcDNA 3.4, purified (protein A)

TriNb-2E8 = target: T6, TriNb-2E8 (alpaca); assay: as above; settings: both partners purified
T6 construct: VHH Nb-2E8, as the VHH of m1; flexible linker, printed as (GGGGS) x 3; VHH Nb-2E8, second copy, as the VHH of m1; VHH Nb-2E8, third copy, as the VHH of m1; also called trivalent Nb-2E8; homo-trimer Nb-2E8 fused to Fc; source: HEK293 cells, pcDNA 3.4, purified (protein A)

TriNb-3C5 = target: T7, TriNb-3C5 (alpaca); assay: as above; settings: both partners purified
T7 construct: VHH Nb-3C5, as the VHH of m2; flexible linker, printed as (GGGGS) x 3; VHH Nb-3C5, second copy, as the VHH of m2; VHH Nb-3C5, third copy, as the VHH of m2; also called trivalent Nb-3C5; homo-trimer Nb-3C5 fused to Fc; source: HEK293 cells, pcDNA 3.4, purified (protein A)

Binder	binding result [1]	other results
1A12 (Nb-1A12) (VHH) VHH: AVQLVESGGGLVQAGGSLRLSCAASGRALTSGTMGWFRQAPGKEREFVARANVKGDGTFYADAVKGRFTISRDYAKNTVYLQMNNLKPEDTAVYFCAADRGTVYGTSEDLYDYWGQGTQVTVSS	binds	–
1C11 (Nb-1C11) (VHH) VHH: AVQLVESGGGLVLAGASLRLSCADSGSGRSLGTYGWFRQAPGKEREFVARISQRGGIDYTDSVKGRFTISRDNSKNTVNLQMTTLTPEDTAVYYCAADPDTVYSRSPALWKYWGQGTQVTVSS	binds	–
1D1 (Nb-1D1) (VHH) VHH: AVQLVESGGGLVQAGGSLRLSCEASGHTFSSGTMGWFRQAPGMEREFVARINEKGDGTFYADSVKGRFTISRDYAKNTVYLQMNTLKPEDTAVYYCVADRGTVYGTREDLYDYWGQGTQVTVSS	binds	–
1E1 (Nb-1E1) (VHH) VHH: AVQLVESGGGLVETGESLRLSCAASGRTIENYHVGWFRQTSGPEREFLAATSRGNGISTIADSVKGRFTISRDNAKNTVYLQMNALKPEDTAVYICAADDANFVNYRSYRAWDNWGQGTQVTVSS	binds	–
1F1 (Nb-1F1) (VHH) VHH: AVQLVESGGGLVQAGGSLRLSCAASGRSFSAYTMAWFRQAPGKEREWMASIVRSGGPTYYADSVKDRFTISRENARNTVYLQMNSLKPEDTAVYYCAADLGWTYSRSPELFGSWGQGTQVTVSS	binds	–
1G6 (Nb-1G6) (VHH) VHH: AVQLVESGGGLVQAGGSLRLSCAASGRTFSTYTMGWFRQAPGKEREFVARIIENTGNIYYADSVKGRFTISEDNAKNTLYLQMNNLKPEDTAVYYCVGDRGAVYGTRPDLYDHWGQGTQVTVSS	binds	–
1H3 (Nb-1H3) (VHH) VHH: AVQLVESGGGLVQAGGSLRLSCAASVHTFTMPTMGWFRQAPGKGRELVARFNANINSTYYGDSVKGRFTISRDFAKNTVYLHMSSLRPEDTAVYYCVADRGVVFGTREDLYDYWGQGTQVTVSS	binds	–
1H7 (Nb-1H7) (VHH) VHH: AVQLVESGGGLVQAGGSLRISCLASGPPFTDYTMGWFRQAPGKEREFVARITNHGGGTHYADSVKGRFTISRDYATNTVYLQMNSLKPEDTAVYYCAADRGAVYGTREDLYDYWGQGTQVTVSS	binds	–
2A3 (Nb-2A3) (VHH) VHH: AVQLVESGGGLVPTGGSLRLSCTASGRTDNLYTVGWFRQAPGKERELIARITEKGGPTYYADSVKGRFSISTHKSKNAIYLQMNSVKPEDTAVYYCVADRGTVYGTREDLYDYWGQGTQVTVSS	binds	–
2B4 (Nb-2B4) (VHH) VHH: AVQLVESGGGLVQAGGSLRLSCAASGRSSSAYTMAWFRQAPGKEREWMASIVRSGGPTYYADSVKDRFTISRENARNTVYLQMNSLKPEDTAVYYCAADLGWTYSRSPELFGSWGQGTQVTVSS	binds	–
2B5 (Nb-2B5) (VHH) VHH: AVQLVESGGGLVQAGGSLRLSCAASGRTIENYHVGWFRQTSGPEREFLAATSRGNGISTIADSVKGRFTISRDNAKNTVYLQMNALKPEDTAVYICAADDANFVNYRSYRAWDNWGQGTQVTVSS	binds	–
2F7 (Nb-2F7) (VHH) VHH: AVAGESGGGVVQAGGSLRLSCAASGRTFSPYAMGWFRQAPGKERESVAAISWSAGDTYYADSVKGRFTISRDNAKNTVYLQMNSLKPEDTAVYYCASRNTYFSDSGYSNFYAYDYWGQGTQVTVSS	binds	–
3E9 (Nb-3E9) (VHH) VHH: AVQLVESGGGLVQAGGSLSLSCAASGRTFSAGTMGWFRQAPGKERELIARVIKNGGSTYYTDSVKGRFTIAADFAKSTVYLQMNSLKPEDTALYYCAADRGAVFGTRQELYDDWGQGTQVTVSS	binds	–
4C1 (Nb-4C1) (VHH) VHH: AVQLVESGGGLVQAGGSLRLSCAASVHTFTMPTMGWFRQAPEKGRELVARFNANINSTYYGDSVKGRFTISRDFAKNTVYLHMSSLRPEDTAVYYCVADRGVFFGTREDLYDYWGQGTQVTVSS	binds	–
4C7 (Nb-4C7) (VHH) VHH: AVQLVESGGGLVQAGGSLRLSCATSGRTLGTYGWFRQAPGKEREFVARFLRNNGLTEYADSVKGRFTISRDDAKNTVELQMIMLKPEDTAVYYCTADPDAVYSRSPALWVYWGQGTQVTVSS	binds	–
4F8 (Nb-4F8) (VHH) VHH: AVQLVESGGGTAQAGGPLRLSCKASGRSFSVGTMAWFRQVPGKEREFLVRDSQKGDGTVYAGSVEGRFTISRDYAKNTMDLQMNSLKPEDTAVYYCAADRGTVYGTREDLYDYWGQGTQVTVSS	binds	–
4G10 (Nb-4G10) (VHH) VHH: AVQLVESGGGLVQAGGSLRLSCEASGHTFNSGTMGWFRQAPGMEREFVARINEKGDGTFYADSVKGRFTISRDYTKNTVYLQMNTLKPEDTAVYYCVADRGTVYGTREDLYDYWGQGTQVTVSS	binds	–
4H6 (Nb-4H6) (VHH) VHH: AVQLVESGGGLVQPGGSLGISCVASGPPFTDYTLGWFRQAPGKEREFVARITNHGGGTHYADSVKGRFTISREYATNTVYLQMNSLKPEDTAVYYCAADRGAVYGTREDLYDYWGQGTQVTVSS	binds	–
MoNb-2E8 (VHH, About 28 kDa with the His-SUMO tag; detected through SUMO (anti-SMT3) or the His tag; also called monovalent VHH antibody Nb-2E8; SUMO-tagged VHH; not shown: His6, N-terminal, kept; SUMO, N-terminal, kept) VHH: AVQLVESGGGLVQAGGSLRLSCAASGRSFSAYTMAWFRQAPGKEREWMASIVRSGGPTYYADSVKDRFTISRENARNTVYLQMNSLKPEDTAVYYCAADLGWTYSRSRELFGSWGQGTQVTVSS	–	binding result [2]: binds; binding result (P61-GEEPNYQEEW): binds; Kd [3]: 101 nM
MoNb-3C5 (VHH, About 28 kDa with the His-SUMO tag; detected through SUMO (anti-SMT3) or the His tag; also called monovalent VHH antibody Nb-3C5; SUMO-tagged VHH; not shown: His6, N-terminal, kept; SUMO, N-terminal, kept) VHH: AVQLVESGGGLVQAGGSLRLSCAASGRSFSAYTMAWFRQAPGKEREWMASIVRSGGPTYYADSVKDRFTISRENARNTAYLQMNSLKPEDTAVYYCAADLGWTYSRSPELFGSWGQGTQVTVSS	–	binding result [2]: binds; binding result (P10-LKIQVSLQIG): binds; Kd [3]: 368 nM
B1	–	Kd (BiNb-2E8): 2.59 nM; Kd (BiNb-3C5): 20.7 nM; Kd (TriNb-2E8): 4.52 nM; Kd (TriNb-3C5): 10.4 nM
